Among the data in US20230242602 are activity (% reduction of human tau mRNA) and activity (% reduction of mouse tau mRNA) values, retold here.

Data set [1] has as its system ZFP-TF 73133 (R→Q variant anti-tau ZFP-KRAB) (synthetic construct). As to the kind of experiment: cell_activity. Conditions: up to, htau mouse hippocampus, AAV9 highest dose, 3 and 6 months.
The subject of data set [2] is ZFP-TF 65918.T2A.57890 (two co-expressed ZFPs) (synthetic construct). As to the kind of experiment: cell_activity. Conditions: htau mouse hippocampus, 3E9 VG per hemisphere.

Consider “human MAPT gene target region (around TSS)”, for which the activity (% reduction of human tau mRNA) in data set [1] was 93; in data set [2], over 50.
In the case of mouse Mapt gene, in data set [2], the activity (% reduction of mouse tau mRNA) is over 50.
